PMC7842262

Test system: HIV-1 Rev (HIV-1)
Assay: EMSA
Settings: scale: fold more Rev than RRE for 50% unbound RNA

Work on 433-mer RcRE (K-RRE) yielded a binding signal of 8.
